Source: the DeepSol protein solubility set

Test: soluble on expression in E. coli; label from the status in PepcDB or PDB records

| Sequence | soluble on expression in E. coli |
| --- | --- |
| MILLPLHCGHVPCFPPLELPVTHVAVIGAGFSGLAAALRLAQAGAQVTVLDALDRPGGKAALGYDDFSSGPTVVTMPQIFAALHARLGWDAPALTPAHPTTTYHALSGRTFAPEALNVVGSLDPTMTQLSRAEGRRYRQLLFAARQMYSGAADTFLFAPPPTRTQLAQYALRAGRQAAPLTPLARYVRSGPFLTPFWLRFATYLGADPYRAPAVLHNIAWVELGDGIWHLPGGLLALAERLYAEALDRGVRFEFGIQVQHLSTHGGRVLGAHTSRGAFAADRWVSAADRALTLGWLGQDTPTTPRGVSGFALQLRLGEDLGQGHHIFWPADYAREWQDIRAGRLPSEPTLYLHLDGPRAFLLVNAPPDPRLGLSPERKADYARHLLQRLQSRFPLPVVEWQALAPADYARTGLGGALYGRAPHGLLGSLRPGWRLPQARNLVQVGGTVHPGGGVPLSLLSGWNGAGSLLGLDYDSLDGEKAFGKPAPAIKLEHHHHHH | not soluble |
| MILPPIPTPFDREGRLDEEAFRELAQALEPLVDGLLVYGSNGEGVHLTPEERARGLRALRPRKPFLVGLMEETLPQAEGALLEAKAAGAMALLATPPRYYHGSLGAGLLRYYEALAEKMPLFLYHVPQNTKVDLPLEAVEALAPHPNVLGIKDSSGDLSRIAFYQARLQEFRVYTGHAPTFLGALALGAEGGILAAANLAPRAYRALLDHFREGRLAEAQELQKKLFPLGDLLAKGGVPLLKQALRHLGLPAGYPRPPYPAESPLWERFLPVLEGLKEEGWVL | soluble |
| MILTEQEKAEVEANRRRYEQHKALGQQQAPKALPPPTPRDGAPIAPESIIHRETVPGGWYYVTKLGRGEAVRIINTSGTSCVSIQAWNALDPSERLNHADTIKVQWAASLRKGRVILSDMGRALLSIIEDTSGAHDTMVGGSNAATNAERYGVGSFRNARDNFVLAAGKLGLDRRDVHPSIALFAPVAVDSQGRFEWHGERRHKGDFVDLRAELDLLIAVSNCPHPLDPSPSYAPGDIELIRYQAPQPASDDLCRTVSLEAKRAFENNAFYLAGAAGRALEHHHHHH | soluble |
| MILVVDNYDSFTYNLVDIVAQHTDVIVQYPDDDNVLNQSVDAVIISPGPGHPLDDQQLMKIISTYQHKPILGICLGAQALTCYYGGEVIKGDKVMHGKVDTLKVISHHQHLLYQDIPEQFSIMRYHSLISNPDNFPEELKITGRTKDCIQSFEHKERPHYGIQYHPESFATDYGVKIITNFINLVKEG | not soluble |
| MIMATLVITIGNDDCVNEGINIICNQCRPIYMNEDNKIIVNVVGEEKFGAGHNAEYITKQVDKHLGIIRDYIIEGLTDCYVEYDENGKEIFIPKTK | not soluble |
| MIMSKIKLTKNDLKKQKDELKMFKRYLPTLQLKKQQLYMEIVKIENSYKIKNLEQQKLKENISNWISLFSEKFPFESWIQVKTVVKKSLNIAGVAIPIFDSIEYEDIRHDLLFTPYWVDKGIEILKVVIQIDVELKILKKQIDLLLREFRITSQRVNLFEKVMIPTAKANIKKINIYLGDQQTAAVVRGKIAKSSLIKKNRNSLLEHHHHHH | not soluble |
| MINLTNLASSLARVALSDSTKPTIDRAMNVVSHIAGKVALQVNSSLLEQKGRLNERQQKGLEVILDALLGKEPVTHVETHEGGGRFNLARAAFDVASVVWERDQSMRNVMSFLGINDSKGNLLFSLGKTLADAMARPEPENGKHNSEANYAFFSSNLKLNKLMNDIADQVINEIRQQNTDRVRRPTPGPSWRPESTQQQARPQTPPSARPQANSAPPPPKAQPDAGAQRPSTERPPKTTPTGASAKVDDSAPAKPPVKQLYEHLGLSDMTADLSAVKKAYKKAALKYHPDKNAGNVAEANERFKKISNAFRILSDPELRTKYDNGVIDENG | not soluble |
| MIPATLHQLKVFETTARHGSFTKAAEELSITQPTVSGQVKQLTQTIGMPLFEHIGRKLYLTEAGEELLATCQEIFERLDNFEMKLAALQGAKRGQLRLGVITTTKYFVPRILGEFCQDYPDIDVSLQVINHQQLHDRMADNLDDLYILSNLPDDLDVHAQAFLDNPLVVVARADHPLAHQKNLPLSVLDGADFVTREMGSGTRLAVEKLLAEHDVSVQVRLELGSNEAIKQAIAGGLGISVLSRHTLITEPPHGELTVLDVEHFPIQRHWYVAYLAGKQLSVIAQAFLEFMVRSSQKTLENSGRRSLALQP | not soluble |
| MIPKQLSEAEAAVVLNLTVSQVRRLRHKGKLGYTPGRPPRIGEDDIEAYLRAVKRRPTLPPPTEPPTPVIEKDSYADIQRRVREKRLKLRLRSSQRSLG | not soluble |
| MIPKVIHYCWFGGNPLPDNLKKYIKTWREQCPDYEIIEWNEHNYDVSKNVFMREAYTKKNFAYVSDYARLDIIYTYGGFYLDTDVELLKSLDPLRIHECFLAREISCDVNTGLIIGAVKGHHFLKSNMSIYDKSDLTSLNKTCVEVTTNLLINRGLKNKNIIQKIDDITIYPRNYFNPKNLLTGKVDCLTSVTYSIHHYEGSWKSSSFISDSLKIRVRLIIDFLFGYGTYRMLLRFLKLKKLEHHHHHH | soluble |
| MIPPSLPAELKAALEQLLQGTQRADAATRAERISLNYRGGGTSAPITSEADALAYAGARMPATYAAVIACLNALTAIRPDFAPATLLDVGAGPGTASWAAAQAFESLQGFTLLDANPALRNLALRLTEARRLSAIDYRLGDAGKALADAPEVTLVIASYLINELGDAARASFADALWRKTSDTLLVVEPGTPAGYQRILQLRDRLIAQGAHVIAPCPHENACPLAAPDWCHFVQRLPRSKLHLQLKSADVPFEDEKFSYVALTRVPLPQRPARVLTQPEQTKAAITAKLCTPAGKLKLAVAARRDKPAYARFRRLDWGDALEAQADLEHHHHHH | not soluble |
| MIQAAKIKQLKSLDSDLEKAIGRISGGLYIITAQKGEVKGAMLASWVSQASFNPPGFTVAVAKDRAIESLMQVGDRFVLNILEEGNYQILMKHFLKRFPPGADRFAGVKTQTASNGSPILTDALAYLECEVASRMECSDHWIVYSQVTNGRVAKAEGLTAVHHRKVGNYYLEHHHHHH | soluble |
| MIQAVFERAEDGELRSAEITGHAESGEYGLDVVCASVSTLAINFINSIEKFAGYEPILELNEDEGGYLMVEIPKDLPSHQREMTQLFFESFFLGMANLSENYSEFVQTRVITEN | soluble |
| MIQRLLNEENLLIGISELSEIAEVSPRQLRYWEEKGYISSIAKDANGPRKYRLHTVVKVHWIKRFLDEGYTLQSAVEKAEEQHRNVGMTKKIFSQMFHGISEVCPNYVAIDLGDFDEEQKLYVVFNETTEVSEYLLIPKDADVSDELKKRK | not soluble |
| MIRILHTADWHLGQTFFGYDRAEEHKAFLDWLAEEIRQNEIDALVIAGDVFDVSNPSAASQRIYYEFIYRVTAENPKLQIVIVAGNHDSAARLEAPLPLLQAMRTEVRGVVRKLEGGEIDYDHLTIELKNREGEVEVLCMAVPFLRQGDYPVVETEGNPYMEGVRELYARLLQRLWARRKTNQAILAVGHLQATGSEIAEKDYSERTVIGGLECVSPDTFSEKIAYTALGHIHKAQRVSGRENVRYAGSPIPMSFAEKHYHHGVVMVILDEGCAVDIRRIECPQSIPLISVPGGEAASPEKIIEILRDLPEVDGEAPYLEVKVLLEEPEPMLRQEIEEALAGKKYRLARIVSAYRQEERVEKEVDGWKKGLQEMSPLQIAQSAFEKVYQAEMPADLTDLFQEAYISATRKEEEEGE | not soluble |
| MIRLNVFVRVNETNREKAIEAAKELTACSLKEEGCIAYDTFESSTRRDVFMICETWQNAEVLAAHEKTAHFAQYVGIIQELAEMKLEKFEF | soluble |
| MISHLFQTYGRRTVEFVKGNGTKVIDNNGKQYLDFTSGIGVCNLGHCHPTVMKAVQEQLNDIWHISNLFTNSLQEEVASLLTENIALDYVFFCNSGAEANEAALKLARKHTGKSLVVTCEQSFHGRTFGTMSATGQNKVKEGFGPLLPSFLHTPFNDIKALKEVMNEEVAAVMVEVVQGEGGVIPADLSFLKEIETLCKKFGSLFIIDEVQTGIGRTGTLFAYEQMGIDPHIVTTAKALGNGIPVGAMIGRKELGTSFTAGSHGSTFGGNYVAMAAAKEVLQVSKRLSFLKEVQEKGEYVLQKLQEELQHVECIQNIRGKGLMVGIECTHEVASFIEQLEKEGLLVLQAGPNVIRLLPPLIVTNEELEQAVYMIKKVVCTKNVSII | not soluble |
